Assay results as given in patent US20210231650A1.

Molecular target: RGD peptide
Assay: single-molecule conductance, electrodes carrying RGD peptide

αvβ3 integrin (receptor)
single-molecule conductance peak G: 0.3 nS
